Experiment: soluble on expression in E. coli; label from the status in PepcDB or PDB records

Row | Sequence | soluble on expression in E. coli
1 | MGSDKIHHHHHHMPENYTPAAAATGTWTEEEIRHQPRAWIRSLTNIDALRSALNNFLEPLLRKENLRIILTGAGTSAFIGDIIAPWLASHTGKNFSAVPTTDLVTNPMDYLNPAHPLLLISFGRSGNSPESVAAVELANQFVPECYHLPITCNEAGALYQNAINSDNAFALLMPAETHDRGFAMTSSITTMMASCLAVFAPETINSQTFRDVADRCQAILTSLGDFSEGVFGYAPWKRIVYLGSGGLQGAARESALKVLELTAGKLAAFYDSPTGFRHGPKSLVDDETLVVVFVSSHPYTRQYDLDLLAELRRDNQAMRVIAIAAESSDIVAAGPHIILPPSRHFIDVEQAFCFLMYAQTFALMQSLHMGNTPDTPSASGTVNRVVQGVIIHPWQA | not soluble
2 | SNAMNHTADNCIFCKIIDGQILCSKVYEDEHVLAFLDISQVTKGHTLVIPKVHKQDIFALTPEIASHIFSVVPKIANAIKAEFNPVGFNLLNNNGEKAGQTVFHFHLHLIPRYGENDGFGAVWKSHQNEYTMENLQNIASTIANSVK | soluble
3 | MFSPTFKSFLLLCLLVVNSWAQDPTTTATSTTTVPSTSTVTTTTVASTSSGSTTASTAAGGSTSTTAAGGSTASTAAGGSTSTTAAGGSTASTAAGGPTGSTAAGGSTASTAAGGSTASTAAGGSTASTVAGATSVVPSSPAPPTQPPVNNGCELGWKFFNRPSGGWCIKVFPGYFALKEHAENACQANGAATLTGLQNKAEALFIQCEYRNSPYFSCFSCFQNSVLGYCSSTVEVLYEYSSMLSEMSAPSGSVWIGIHRTPACNRKPLSAQCNKNTAFRWTDKSATGVDGFVFQRGQPDNGGRALNQNCALLLASSKPFIDAGGRYYAAQMEDVHCNATFVPGNMARKTSGYACGKPNKCQPGWKFFDRQSGGWCMKVFTGFHAAKVDAEAACKDVGATLSGLENKEEAIFIQNALLARISQASGSVWIGIQRKAECLGKGLTASGTPTTSFEWTDNSASGVGGMVFQAGQPDNGVTALNQNCALLLASSQPYIDARGRFYAATMEDVPCVANFVASNEARRTRGYVCGKPL | not soluble
4 | MEVTDVRLRRVNTEGRMRAIASITLDHEFVVHDIRVIDGNNGLFVAMPSKRTPDGEFRDIAHPINSGTRSKIQDAVLTEYHRLGELEEVEFEEAGAS | not soluble
5 | PQEKLIFTLDSADRAYRVLVEAMNEGTATLASDGTILYCNRQFAELTKMSSGAVVGTSIYGFIAPEDAITFKALLKQKNSVGELKFRAQGGTSVPVYLSISSLQSEGSPSAWCLVVTDL | not soluble
6 | MKGLFLIFHGFEAFNGISKKIRYQVKALKECGLEMHTCWLDDTDNHKRRMVDESIIADYGFGIKGKILKRIEFDSIVHYVQKENIDFIYVRYVHNASPFSIRLMKLLKKTGARIVMEIPTYPYDQEYKGLPFVYQRILFIDKCFRQHLARYVDKIVTFSDYDIIWNRPTIRISNGIDFSEIPLRGPKNDTAHSLQLIAVATMHPWHGFDRVIAGMANYYRTHTDTHDYKVYLNIVGFGVPELVDSYKKDVAKHQLEKYIIFHSALYGKELDAVFEQSDMGIGSLARHRSGIDKIKTLKNREYAARGIPFVYSETDDDFEHQPYILKAAPDDSPLDIEKVIRFYQSLKTTPLQIRMSIEQSLSWKAQMQIVINETFE | not soluble
7 | MAIIASTFGTGLSYAGELPFKPVTGGEVGRKQQRMVVVRAEGGGGINPEIRKNEDKVVDSVVVTELSKNITPYCRCWRSGTFPLCDGSHVKHNKANGDNVGPLLLKKQ | soluble
8 | MGSDKIHHHHHHMRASSHLPQLHGRLDLTFERRRGTTRLVASEQTPPLNVSRVLRTEEVDLATVYLVETSGGVVSGDSQTIAIYVGEGARVELIPQSATKVYPSRKQGESSTQQVWLRVDEGAAAFWKPESIIPFRKASFLQSTRFHLHSSSTFFYGDMLTPGRVHHNERFQYEQVDSLVEIYLDETLVVHDRVHLQPKDQLQTIGRLDGYSYYGAVWMHAPILKGAHLEQWMENGGQNDRFAYTCVAEGLIHVRWLSESSWRLRAALNDLYTAFRTFALKGE | not soluble
9 | MAVKVAINGFGRIGRLAFRRIQEVEGLEVVAVNDLTDDDMLAHLLKYDTMQGRFTGEVEVVDGGFRVNGKEVKSFSEPDASKLPWKDLNIDVVLECTGFYTDKDKAQAHIEAGAKKVLISAPATGDLKTIVFNTNHQELDGSETVVSGASSTTNSLAPVAKVLNDDFGLVEGLMTTIHAYTGDQNTQDAPHRKGDKRRARAAAENIIPNSTGAAKAIGKVIPEIDGKLDGGAQRVPVATGSLTELTVVLEKQDVTVEQVNEAMKNASNESFGYTEDEIVSSDVVGMTYGSLFDATQTRVMSVGDRQLVKVAAWYDNEMSYTAQLVRTLAYLAELSK | soluble
10 | MSLTNDVDAIQPIGLRRIDHIAQTMKFDEMQDWLLYYISTFEMDKSSIVNVNDPSGIILSQAIESPEGEVRLNLNASEDLNTFAGLFVEDKFGAGVQHIAFASDDIFESANLLRINGFKSLAIPSGYYEETKNKFNLNDTFIAQLKKQNILYDQDGNSEYFQIYSKNLFDGFFFEIVQRKNGYSGYGARNASVRLSSQTILQQAEGHHHHHH | not soluble
11 | MGSDKIHHHHHHMKILITGANGQLGREIQKQLKGKNVEVIPTDVQDLDITNVLAVNKFFNEKKPNVVINCAAHTAVDKCEEQYDLAYKINAIGPKNLAAAAYSVGAEIVQISTDYVFDGEAKEPITEFDEVNPQSAYGKTKLEGENFVKALNPKYYIVRTAWLYGDGNNFVKTMINLGKTHDELKVVHDQVGTPTSTVDLARVVLKVIDEKNYGTFHCTCKGICSWYDFAVEIFRLTGIDVKVTPCTTEEFPRPAKRPKYSVLRNYMLELTTGDITREWKESLKEYIDLLQM | soluble
12 | MATAVKLSGISKTFGSLKANDNVSLSIEAGSIHALVGENGAGKSTLSNIIYGLLHPDSGTIEIDGKAVKFSSVRQAIEAGIGMVHQHFMLVPTLSVTENIILGKEESRLALPTRRIGKEIRQLSQQHGLEVDPDALVSTLSVGEQQRVEILKLLYRRAKLLILDEPTAVLSPPETARLFATLRSLAAEGRTVLLITHKLDEVLTVSDSVSVMRKGSLVGTVPTTSTSKEDLARMMVGRDVLLRTANAPQTPGKTVLSIDKLTYRSPLGIDKLTGLTLHVRAGEIYGIAGVEGNGQSELLSLLWGTFDRSGKTGGSITIDAQETLGKNPSEIAALGVSMIPEDRHKSAIIAEYGIEENLILGRHREKAFHRGIGFDRDAVHKNATAMIEQYDIRCAAGTNPPIASLSGGNQQKIVVAREMERPQLKLLVLAQPTRGVDIGAIEQIHKRIIDARKSGLAILLISSELEEIVALSTRIGCLYKGAIRHEFSETEVWRGRDHESGFEKEIGMHITLEHHHHHH | soluble
13 | MKAQMESWQDIQEYVKNNKKKHKRRMANDAMKNVNELGFPFTYFEDTYQFAIKTSIGMVDYFGTTGTWVVRKNQDRGRGLKKLKKYLEHPVPTKEIKKTKGNQSWMKNNR | not soluble
14 | MGSDKIHHHHHHMRRALRPSMELISARTSSTSSIWTPRVSQSSELVFDATGCCSSLSGSSACDRGDGIVRGITMDRQRLQALGHKVRMIPAQFVKPHVKSNKSDIIDAEAIAEAATRPTMRFAAIKSEEQADLQALHRVRDQMIGTRTRLINQMGAFCLEYDIALRQGAGLFKLDLPLVLDDLE | not soluble
15 | MHGSKLPLTVWFWAAYLMATHSNGISARQMGRHLGLGSYKSAWLLCAKLRGAMVNLARALLSGLVEIDETQISYRTKDNPVAGGGGRSPEGKMQVVVAVEVIDNAPGRLRLGVIDDASSASLHPFIKASVASGATLKTDGWSAYPGAPGYKHEPHVVGKMAAHIVLPWVHRVISNLKTWALGVYHGLRRQHLQSYLNEFVFRFNCRRTPHAAFRTLLGIGLAIQPVTYNMLIAPEAQGLEHHHHHH | not soluble
16 | VSNKTYYLVGTSHISENSVKLVKEVIERVQPDTVSIELDKKRYEKYTNSNQWGNTDIIKIIKEKKLVVLISNIVYSAYQKKLANTKGTTQAGELIQAIKSAKEIGANIQLIDRDIQVTFKRMWRHLSFLEKPKLFMTFFTEFDDIEQDKLEEYLESDSFDKVFISLSKKYPSLYQDMITDRDKYMSTKLKNNSSQVNVVVVGKAHMKGIKEKLEKRTEFSL | not soluble
17 | MLWMVIGMWDTSKDYRLMVAVKAVDLFRRTLESGGFRGQWKKKPALQAAGEIERILQGLTYCYMEPEDLASSPEVMEIKGKVEEIVEALGGEDWSRRFLEEAPREEREKVEENIARVRFFLNTLGNLDRRLMLGKISDPVIGVDIITGEVMSVGNHPVADKLHVCNVNAGGRSIKVVTNDLDVRENDHVAVALLPPQNFMGVTSEGMFLGVEGVLRDVDGEPGEMPRGIPLEALNETRNLVEEFLKS | soluble
18 | MGSDKIHHHHHHMKGVLYISFLVCILLGCSDSDGLPDGGKDKTARTELEIVSASIVEGNTQTRADVPFTPGSSIALFCHGQAAETSYTPVNNRKYTLNSGDSKWTAESEATTIYLGSEKADVCGYYPYVEGTVGTADTLYNVRTTIPMDTQDYDPSKELYYVANQEVDAKRYFVEMHFKHAYSRLVLNIGVEDAYPATCSINSVALANDSLFRKAVIDITSGTVGIHPDDTEKQFRGGYNITKDLPYLLDSPDKKYQADLLMIPTKLLPDPFEPTKGLSVIVNVSGFPATVIIPIDDLSDFESGKKYVVSLKLRGIAIKSVTVTTTDWDEKRLNEGVDYEPLPQS | not soluble
19 | MGKVYVFDHPLIQHKLTYIRDKNTGTKEFRELVDEVATLMAFEITRDLPLEEVEIETPVSKARAKVIAGKKLGVIPILRAGIGMVDGILKLIPAAKVGHIGLYRDPQTLKPVEYYVKLPSDVEERDFIIVDPMLATGGSAVAAIDALKKRGAKSIKFMCLIAAPEGVKAVETAHPDVDIYIAALDERLNDHGYIVPGLGDAGDRLFGTK | soluble
20 | GSHMMKVEKEIKTNQDIDVVMTIFSDPAFTIPQIFPGIASIKCIEPEIFEAEGKFLAFSYKVKGRVYKGVDEVRIIYDSDRGNGILYIRKKDNNTLQIILEHDNKLTAFLGKPYVSSNLDRLAENIDEIIRLERIKRKI | soluble
21 | MSLSDVSRILKEARSQSRLTTLDYAEQIFDDFMELHGDRHFADDGAIVGGIGLLDGQAVTVIGVQKGKNLQDNLNRNFGQPNPEGYRKALRLMKQAEKFKRPVVTFINTAGAYPGIGAEERGQGEAIARNLLEMSDLKVPIIAIIIGEGGSGGALALAVADKVWMLEHTMYAVLSPEGFASILWKDGSRSIEAAELMKITAGELLKMEVVDKVIPEHGYFSSEIIQMLKTNLIEELKNLDQYPLNDLLEKRYQRFRKYEGHHHHHH | soluble
22 | MASGRARCTRKLRNWVVEQVESGQFPGVCWDDTAKTMFRIPWKHAGKQDFREDQDAAFFKAWAIFKGKYKEGDTGGPAVWKTRLRCALNKSSEFKEVPERGRMDVAEPYKVYQLLPPGIVSGQPGTQKVPSKRQHSSVSSERKEEEDAMQNCTLSPSVLQDSLNNEEEGASGGAVHSDIGSSSSSSSPEPQEVTDTTEAPFQGDQRSLEFLLPPEPDYSLLLTFIYNGRVVGEAQVQSLDCRLVAEPSGSESSMEQVLFPKPGPLEPTQRLLSQLERGILVASNPRGLFVQRLCPIPISWNAPQAPPGPGPHLLPSNECVELFRTAYFCRDLVRYFQGLGPPPKFQVTLNFWEESHGSSHTPQNLITVKMEQAFARYLLEQTPEQQAAILSLV | soluble

Source: the DeepSol protein solubility set
